From publication PMC5142333, “The topology, structure and PE interaction of LITAF underpin a Charcot-Marie-Tooth disease type 1C” (BMC Biology, 2016) come the findings set out here.

This series concerns the molecule itself. Kind of series: SEC; Superdex 200 10/300 GL; recombinant LITAF constructs; wild type LITAF kept in detergent. (SEC sorts molecules by how far they enter the pores of the column.)

B1: wild type LITAF (full length, recombinant) (natural protein, human, UniProt Q99732 1-161, looked up)
chain: MSVPGPYQAATGPSSAPSAPPSYEETVAVNSYYPTPPAPMPGPTTGLVTGPDGKGMNPPSYYTQPAPIPNNNPITVQTVYVQHPITFLDRPIQMCCPSCNKMIVSQLSYNAGALTWLSCGSLCLLGCIAGCCFIPFCVDALQDVDHYCPNCRALLGTYKRL
notes: Lipopolysaccharide-induced tumour necrosis factor-alpha factor (LITAF, SIMPLE), human, full length wild type; Kept soluble with detergent (1% DDM or 1% FC12 at lysis, 0.04% DDM or 0.125% FC12 afterwards); also called LITAF WT; full length wild type LITAF protein; source: C43(DE3) BL21 E. coli, purified in detergent (Ni-NTA, ULP1 cleavage, SEC; DDM or FC12); not shown: His6, N-terminal, cleaved; …
For the protein B1, the binding result is on record as “binds”.
